Assay results reported in US20150285818A1, “Switchable Reporter Enzymes for Homogenous Antibody Detection” (TECHNISCHE UNIVERSITEIT EINDHOVEN, priority 2012, published 2015).

Assays:
[1] = biological target: …-GGG-C(fluorescein) (HIV1); assay: fluorescence polarization, 10 nM labelled peptide titrated with antibody
[2] = biological target: WEKIRLR-GGG-C(fluorescein) (HIV1); assay: as above
[3] = biological target: …-GGG-C(fluorescein) (HIV1); assay: fluorescence polarization, 10 nM fluorescein-labelled peptide titrated with antibody
[4] = biological target: WEKIRLR-GGG-C(fluorescein) (HIV1); assay: as above
…-GGG-C(fluorescein) [5] = assay: fluorescence polarization, 2 nM fluorescein-labelled peptide titrated with antibody
…-GGG-C(fluorescein) [6] = assay: fluorescence polarization, 2 nM labelled peptide titrated with antibody

Substance	Kd [1]	Kd [2]	EC50 (read off the curve) [3]	EC50 (read off the curve) [4]	EC50 (read off the curve) (…-GGG-C(fluorescein) [5])	Kd (…-GGG-C(fluorescein) [6])
anti-HIV-1-p17 antibody (clone 32/1.24.89, Zeptometrix)	24 nM	3300 nM	30 nM	3000 nM		
HA monoclonal antibody (clone 2-2.2.14, Thermo Scientific)					1 to 2 nM	0.58 nM
